This note sets out measurements from PMC10167327 (2023).

Some results are limits rather than exact numbers.

B1: Vtc4* (Vtc4(1–487), SPX and TTM domains of Vtc4 without the transmembrane domain) (domain or fragment)
chain: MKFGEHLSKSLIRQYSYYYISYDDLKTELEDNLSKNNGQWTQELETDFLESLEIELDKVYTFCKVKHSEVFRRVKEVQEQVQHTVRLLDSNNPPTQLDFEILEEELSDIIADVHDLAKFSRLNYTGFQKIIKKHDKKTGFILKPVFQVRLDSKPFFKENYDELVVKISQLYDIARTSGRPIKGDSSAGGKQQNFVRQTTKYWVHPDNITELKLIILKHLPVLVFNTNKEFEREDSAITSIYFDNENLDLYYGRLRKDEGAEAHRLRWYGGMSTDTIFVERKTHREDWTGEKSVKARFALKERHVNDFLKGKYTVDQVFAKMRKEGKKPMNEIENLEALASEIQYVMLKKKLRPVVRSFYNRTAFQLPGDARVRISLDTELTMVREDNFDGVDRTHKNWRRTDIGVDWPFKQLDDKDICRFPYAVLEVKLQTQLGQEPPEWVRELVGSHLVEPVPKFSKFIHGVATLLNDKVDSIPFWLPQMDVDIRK
modifications: RED-tris-NTA 2nd generation dye on the His tag (MST); RED-NHS 2nd generation dye (MST with TTM2)

The target in one experiment is SPX2 S189A (S. cerevisiae, UniProt P43585 1-201, serine 189 to alanine). The experiment can be described thus: MST.
The next experiment concerns the target SPX2 S187A (S. cerevisiae, UniProt P43585 1-201, serine 187 to alanine). The experiment can be described thus: MST.
For the next experiment, the target named is SPX2 K127A (S. cerevisiae, UniProt P43585 1-201, K127A). The experiment can be described thus: MST.
Another experiment deals with SPX2 N121A (S. cerevisiae, UniProt P43585 1-201, N121A). The experiment can be described thus: MST.
For the next experiment, the target named is SPX2 Y19F (S. cerevisiae, UniProt P43585 1-201, Y19F). The experiment is described as follows: MST.
The target of experiment [1] is B1. The experiment is described as follows: MST; +100 mM NaCl.
The target of experiment [2] is B1. The experiment is described as follows: MST; 2.5 mM 5-IP7.
In experiment [3] the target is B1. The experiment is described as follows: MST.
Experiment [4] concerns the target TTM4 (TTM domain of Vtc4, Vtc4(192–487)) (S. cerevisiae, UniProt P47075 192-487, RED-tris-NTA 2nd generation dye on the His tag). The experiment is described as follows: MST.
Experiment [5] concerns the target B1. The experiment is described as follows: MST; 2.5 mM IP6.
Experiment [6] has as its target B1. The experiment can be described thus: MST. This is another data set of the same source.

TTM4 (TTM domain of Vtc4, Vtc4(192–487)), sequence (P47075 192-487): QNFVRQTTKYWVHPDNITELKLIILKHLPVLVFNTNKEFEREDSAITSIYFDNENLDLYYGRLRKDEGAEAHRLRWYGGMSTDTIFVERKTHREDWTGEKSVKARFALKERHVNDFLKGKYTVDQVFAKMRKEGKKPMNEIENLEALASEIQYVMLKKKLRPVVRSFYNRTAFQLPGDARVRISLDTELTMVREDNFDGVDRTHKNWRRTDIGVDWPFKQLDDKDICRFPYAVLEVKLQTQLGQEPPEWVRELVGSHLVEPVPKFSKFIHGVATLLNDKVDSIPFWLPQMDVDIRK

Take B1: the Kd (in general, the concentration at which binding is half-saturated) in the experiment with SPX2 S189A is 71 µM; in the experiment with SPX2 S187A it was 30 µM; in the experiment with SPX2 K127A it was 166 µM; with SPX2 N121A, 118 µM; with SPX2 Y19F, 633 µM.

B2: SPX2 (SPX domain of Vtc2, Vtc2(1–201)) (domain or fragment)
chain: MLFGVKLANEVYPPWKGSYINYEGLKKFLKEDSVKDGSNDKKARWDDSDESKFVEELDKELEKVYGFQLKKYNNLMERLSHLEKQTDTEAAIKALDADAFQRVLEELLSESTELDNFKRLNFTGFAKIVKKHDKLYPKYPSVKSLLEVRLKELPSHSEEYSPLLYRISFLYNILRSNFNTASEPLASASKFSSIVSNDIDM
For the molecule B2, the Kd in experiment [1] was 91 µM; in [2], more than 1200 µM; in [3], 18.8 µM; in experiment [4], 264 µM; in experiment [5] it was more than 300 µM.

B3: SPX2∆α7 (Vtc2(1–182)) (domain or fragment)
chain: MLFGVKLANEVYPPWKGSYINYEGLKKFLKEDSVKDGSNDKKARWDDSDESKFVEELDKELEKVYGFQLKKYNNLMERLSHLEKQTDTEAAIKALDADAFQRVLEELLSESTELDNFKRLNFTGFAKIVKKHDKLYPKYPSVKSLLEVRLKELPSHSEEYSPLLYRISFLYNILRSNFNTAS
As for B3, the Kd in experiment [6] came out at 500 µM.
